From article PMC4685450, “Crystal Structure of Human SSRP1 Middle Domain Reveals a Role in DNA Binding” come the findings set out here.

Common to all, as to details: protein: recombinant; tags: N-terminal 6xHis; blunt
Data set [1] deals with T1, SSRP1-M (Homo sapiens, UniProt Q08945 196-430). As to the kind of experiment: EMSA; no obvious difference from linker DNA; EMSA buffer, salt, pH and temperature not given in the material; proteins purified in 20 mM Tris-HCl, 200 mM NaCl, pH 7.0.
The target in the next data set is SSRP1-N (Homo sapiens, UniProt Q08945 1-176). The experiment in a line: EMSA (agarose); EMSA buffer, salt, pH and temperature not given in the material; proteins purified in 20 mM Tris-HCl, 200 mM NaCl, pH 7.0. A general note: Mobility shift assays separate free from complexed probe on a gel.
SSRP1-N, sequence (Q08945 1-176): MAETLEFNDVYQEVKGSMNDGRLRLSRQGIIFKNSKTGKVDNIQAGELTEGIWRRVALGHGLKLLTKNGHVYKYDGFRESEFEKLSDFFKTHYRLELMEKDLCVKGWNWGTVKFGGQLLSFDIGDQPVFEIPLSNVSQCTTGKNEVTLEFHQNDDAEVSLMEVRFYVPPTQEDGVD
The target of the next data set is SSRP1-C (Homo sapiens, UniProt Q08945 513-709). Described as above.
SSRP1-C, sequence (Q08945 513-709): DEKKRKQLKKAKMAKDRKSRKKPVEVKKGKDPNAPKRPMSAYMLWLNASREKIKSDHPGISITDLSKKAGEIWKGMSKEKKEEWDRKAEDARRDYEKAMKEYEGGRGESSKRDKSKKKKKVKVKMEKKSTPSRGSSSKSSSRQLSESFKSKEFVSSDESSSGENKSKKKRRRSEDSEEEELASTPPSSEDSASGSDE
The target of data set [2] is T1, SSRP1-M. As to the kind of experiment: EMSA (agarose and native PAGE); oligomerized complex in wells; EMSA buffer, salt, pH and temperature not given in the material; proteins purified in 20 mM Tris-HCl, 200 mM NaCl, pH 7.0.

T1 sequence (Q08945 196-430): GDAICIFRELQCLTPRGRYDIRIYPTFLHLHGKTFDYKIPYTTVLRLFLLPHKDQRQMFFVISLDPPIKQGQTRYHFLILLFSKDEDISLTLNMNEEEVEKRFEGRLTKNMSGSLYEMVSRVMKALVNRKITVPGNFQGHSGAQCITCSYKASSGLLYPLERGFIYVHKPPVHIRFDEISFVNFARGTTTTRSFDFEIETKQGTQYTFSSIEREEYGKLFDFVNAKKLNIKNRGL

B1: AT-rich dsDNA (dsDNA)
DNA 1: ATAATTTATATTTATTATTTTATTATAATT
DNA 2: AATTATAATAAAATAATAAATATAAATTAT
On to B1, for which the binding result with SSRP1-M [1] is recorded as “binds”.

B2: GC-rich dsDNA (dsDNA)
DNA 1: GCGGCCCGCGCCCGCCGCCCCGCCGCGGCC
DNA 2: GGCCGCGGCGGGGCGGCGGGCGCGGGCCGC
Turning to B2, in the data set with SSRP1-M [1], the binding result is on record as “binds”.

B3: 30-bp linker dsDNA (dsDNA)
DNA 1: TCCAGTGCCGGTGTCGCTTGGGTCCCGAGG
DNA 2: CCTCGGGACCCAAGCGACACCGGCACTGGA
For B3, the figures for the binding result with SSRP1-N, with SSRP1-C and with SSRP1-M [2] were “no binding”, “binds” and “binds”, respectively.
